For test [1], the target named is T1, human IL-15 complexed with the IL-15 Receptor-alpha (human, UniProt P40933 49-162). The experiment in a line: cell-based or functional assay.
The target of test [2] is T1, human IL-15 complexed with the IL-15 …. The experiment in a line: cell-based or functional assay. The source holds these as a separate data set.
Target sequence in this assay (P40933 49-162 limits assumed, one chain of several): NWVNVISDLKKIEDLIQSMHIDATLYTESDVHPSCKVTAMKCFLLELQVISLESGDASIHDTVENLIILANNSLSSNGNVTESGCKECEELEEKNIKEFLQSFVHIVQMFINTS
For test [3] the target is unchanged. Kind of test: SPR, run 5. A general note: Surface plasmon resonance follows binding to a sensor surface in real time, without labels.
Target sequence in this assay (P40933 49-162 limits assumed, one chain of several): as above
For test [4] the target is unchanged. Kind of test: SPR.
Target sequence in this assay (P40933 49-162 limits assumed, one chain of several): as above
The target is the same in test [5]. The experiment in a line: SPR, run 2.
Target sequence in this assay (P40933 49-162 limits assumed, one chain of several): as above
Test [6] deals with T2, uncomplexed IL-15 Receptor α (human).
T2 construct: also called IL-15Rα; IL15Rα
T2 chain: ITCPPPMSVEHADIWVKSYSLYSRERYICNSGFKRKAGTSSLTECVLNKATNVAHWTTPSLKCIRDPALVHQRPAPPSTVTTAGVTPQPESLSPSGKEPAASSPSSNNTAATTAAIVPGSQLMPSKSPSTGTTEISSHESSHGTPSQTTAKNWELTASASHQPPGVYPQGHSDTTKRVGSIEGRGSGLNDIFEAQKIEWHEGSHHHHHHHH
Kind of test: ELISA and cELISA, hybridoma supernatant. On the procedure: Microtiter plates were coated with purified IL-15 or purified IL-15Rα or purified IL-15 complex. Briefly, microtiter plates were coated with purified protein in PBS and then blocked with irrelevant proteins such as bovine serum albumin (BSA) diluted in PBS. Dilutions of hybridoma supernatants were added to each well and incubated for 1-2 hours at 37° C. The plates were washed with PBS/TWEEN® 20, and then incubated with a goat-anti-human IgG Fc-specific polyclonal reagent conjugated to a suitable detection reagent […] for 1 hour at 37° C. […] Hybridomas that produced antibodies showing positive reactivity with the IL-15 complex but not with IL-15Rα were selected for further characterization.
cELISA was carried out as follows. HEK cells were transfected with DNA encoding IL-15 and IL-15Rα such that they expressed the IL-15 complex. The transfected HEK cells were coated onto an ELISA plate and dilutions of hybridoma supernatants was applied to the plate so that it could bind to the IL-15 complex expressed on the surface of the cells. The assay was repeated using HEK cells transfected with IL-15Rα such that they expressed uncomplexed IL-15Rα. The advantage of using cELISA in addition to classical ELISA is that a native protein complex is used to screen the antibodies.

Test [7] deals with T1, human IL-15 complexed with the IL-15 …. Kind of test: SPR, run 4.
Target sequence in this assay (P40933 49-162 limits assumed, one chain of several): as the sequence (P40933 49-162 limits assumed, one chain of several) above
For test [8] the target is unchanged. Kind of test: SPR, antibody captured on Protein A chip, IL-15 complex as analyte. The procedure:
Binding of Antibody 70 variants to human IL-15 complexed with the IL-15 Receptor-alpha were assessed using surface plasmon resonance on a BIACORE® T200 (GE Healthcare) system using a Protein A Sensor Chip (GE Healthcare). Antibodies were captured onto the second flow cell to a level of 150-200 RU. Purified cytokines were diluted to 10 μg/mL in HBS-EP+. Binding was measured by injection of […] of each cytokine at a flow rate of […] across both flow cells and allowing 180 s of dissociation time. The chip surface was regenerated between cycles with two 10 sec pulses of 50 mM sodium hydroxide. The running buffer used was HBS-EP+ (GE Healthcare) and all interactions were measured at 25° C. and data collection rate set to 10 Hz.
A summary of the surface plasmon resonance data is shown on FIG. 36. The affinity can be measured by the KD (the equilibrium dissociation constant between the antibody and its antigen). […] The large difference in KD between variants of Antibody 70 and AMG714 is driven by the dissociation rate (kd). IL-15 dissociates from AMG714 ten times faster than the rate of dissociation of IL-15 from Antibody 70 variants. […] This was tested in a cell based potency assay.
Target sequence in this assay (P40933 49-162 limits assumed, one chain of several): as the sequence (P40933 49-162 limits assumed, one chain of several) above

Test [9] has the same target. The experiment in a line: SPR, run 6.
The target of a further test is IL-9 (UniProt P15248 19-144). The experiment in a line: SPR, antibody captured on Protein A chip.
Chain of IL-9 (P15248 19-144 limits assumed): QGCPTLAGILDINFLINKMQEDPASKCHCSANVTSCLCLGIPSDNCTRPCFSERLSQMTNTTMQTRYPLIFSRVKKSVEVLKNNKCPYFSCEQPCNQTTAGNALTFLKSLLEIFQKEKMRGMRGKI
Test [10] concerns the target T2, uncomplexed IL-15 Receptor α. The experiment in a line: SPR, antibody captured on Protein A chip.
The target of another test is T3, IL-4 (UniProt P05112 25-153).
T3 sequence (looked up): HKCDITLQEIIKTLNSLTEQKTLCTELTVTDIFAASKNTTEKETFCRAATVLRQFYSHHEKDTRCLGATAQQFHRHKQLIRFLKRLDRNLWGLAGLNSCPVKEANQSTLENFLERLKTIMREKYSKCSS
Kind of test: SPR, antibody captured on Protein A chip.

The target in the next test is T4, IL-7 (UniProt P13232 26-177).
T4 sequence (looked up): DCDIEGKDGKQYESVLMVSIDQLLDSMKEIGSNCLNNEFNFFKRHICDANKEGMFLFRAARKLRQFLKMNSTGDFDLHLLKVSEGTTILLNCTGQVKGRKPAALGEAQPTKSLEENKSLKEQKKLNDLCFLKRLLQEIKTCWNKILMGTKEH
Kind of test: SPR, antibody captured on Protein A chip.

A further test deals with IL-21 (UniProt Q9HBE4 30-162, limits assumed). Kind of test: SPR, antibody captured on Protein A chip.
Chain of IL-21 (Q9HBE4 30-162 limits assumed): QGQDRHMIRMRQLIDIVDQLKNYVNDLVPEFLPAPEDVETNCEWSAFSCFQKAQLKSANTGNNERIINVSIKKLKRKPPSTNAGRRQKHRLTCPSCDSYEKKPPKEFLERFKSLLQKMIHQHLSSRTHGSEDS
The next test concerns the target IL-2 (UniProt P60568 21-153). The experiment in a line: SPR, antibody captured on Protein A chip.
Test [11] concerns the target T5, IL-15 H105A co-expressed with IL-15Rα (human, UniProt P40933 49-162).
T5 construct: Purified alanine scan construct, expressed in EXPI293F cells with human IL-15Rα
Kind of test: SPR. The procedure: (§1) All interactions were measured at 25° C. and the data collection rate was set to 10 Hz. Data from FC2-1 was used for analysis. The resultant sensorgrams were analysed by creating two custom report points, each calculated for a 5 s window starting either 10 s after injection of the sample (‘early binding’) or 10 s before the end of dissociation (‘late binding’). These values were subtracted from the values for the untransfected control and a relative dissociation rate was estimated by first, taking a ratio of these two custom report points (‘late binding’/‘early binding’) and then, taking the resultant values as a fraction of the value calculated for wild-type human IL-15 complexed with the IL-15 Receptor-alpha (data not shown).
(§2) A Protein A Sensor Chip (GE Healthcare) was used to capture Antibody 70a onto the second flow cell to a capture level of 150-200 RU. Purified IL-15 alanine scan constructs were diluted to 10 μg/mL in HBS-EP+ and then a 2-fold dilution series was made. Binding was measured by injection of 45 μL of each dilution at a flow rate of 30 μL/min across both flow cells and allowing 600 s of dissociation time. The chip surface was regenerated between cycles with a 10 sec pulse of 50 mM sodium hydroxide. The running buffer used was HBS-EP+ (GE Healthcare) All interactions were measured at 25° C. and the data collection rate was set to 10 Hz. Data from Fc2-1 was used for analysis and generated sensorgrams were fitted using a 1:1 Langmuir equation (using local Rmax fitting) to determine KD. […] Antibody 70a had low binding to mutated IL-15 with a Q108A substitution.

In test [12] the target is T6, IL-15 E98A co-expressed with IL-15Rα (human, UniProt P40933 49-162).
T6 construct: Purified alanine scan construct, expressed in EXPI293F cells with human IL-15Rα
T6 sequence (P40933 49-162 E146A limits assumed): as the sequence (P40933 49-162 limits assumed, one chain of several) above, with E98A counted along it
The experiment in a line: SPR. The procedure:
as §1, §2

Test [13] has as its target T7, IL-15 Q101A co-expressed with IL-15Rα (human, UniProt P40933 49-162).
T7 construct: Purified alanine scan construct, expressed in EXPI293F cells with human IL-15Rα
Kind of test: SPR. On the procedure: as §1, §2

In test [14] the target is T1, human IL-15 complexed with the IL-15 …. The experiment in a line: cell-based or functional assay. The source holds these as a separate data set.
Test [15] has the same target. The experiment in a line: subsequent studies, method not restated; subsequent studies; average; analyte form and method not restated.

Values joined by “and” are separate entries in the source; they are usually repeats but may differ in a detail not shown here. Equal values may be shown once.

Chain of IL-2 (P60568 21-153 limits assumed): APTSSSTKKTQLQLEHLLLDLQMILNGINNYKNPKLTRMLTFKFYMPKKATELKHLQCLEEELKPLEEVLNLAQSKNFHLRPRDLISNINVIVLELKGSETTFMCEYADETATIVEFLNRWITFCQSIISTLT
T7 sequence (P40933 49-162 Q149A limits assumed): as the sequence (P40933 49-162 limits assumed, one chain of several) above, with Q101A counted along it
T5 sequence (P40933 49-162 H153A limits assumed): as the sequence (P40933 49-162 limits assumed, one chain of several) above, with H105A counted along it

B1: Antibody 4 (antibody, V domains shown, not shown: a dimerising Fc or GST)
VH: QVQLQESGPGLVKPSGTLSLTCAVSGGSISSSNWWSWVRQPPGKGLEWIGEIYHSGNTNYNPSLKSRVTISVDKSKNQFSLKLISVTAADTAVYYCAREGIGWPSFDYWGQGTLVTVSS
VL: SSELTQDPAASVALGQTVRITCQGDTLRNYYASWYQQKPGQAPILVIYGKNNRPSGIPDRFSGSSSGNTASLTITGAQAEDEADYYCNSRDSSGKNLVFGGGTKLTVLG
notes: from section 3.4 on as recombinant human IgG1 lambda; also called parent antibody; parental antibody
B1: the “IC 50 (NK-92) in pM” value in test [1] is 148 pM. The “IC50, NK-92 proliferation assay” value in test [2] worked out at 0.1 nM. Moreover, the Kd (commonly the concentration at which binding is half-saturated) in test [3] was 0.979 nM; in [4], 0.63 nM and 0.628 nM; in [5] it was 0.982 nM; in [7], 1.28 nM; in test [8], 0.629 nM; in [9], 1.07 nM. In addition, the koff (as a rule, a measure of how fast the partners let go of each other) in test [3] is 0.000166 s⁻¹; in test [4], 9.43e-05 s⁻¹ and 9.31e-05 s⁻¹; in [5], 0.000138 s⁻¹; in [7], 0.000182 s⁻¹; in [9], 0.00016 s⁻¹. Moreover, the on-rate (kon) (commonly a measure of how fast the partners come together) was 170000 M⁻¹ s⁻¹ in test [3]; 148000 M⁻¹ s⁻¹ and 150000 M⁻¹ s⁻¹ in [4]; 141000 M⁻¹ s⁻¹ in test [5]; 142000 M⁻¹ s⁻¹ in test [7]; 150000 M⁻¹ s⁻¹ in [9]. In test [6], the binding result is reported as “no binding”.

B2: Antibody 70a (antibody, human IgG1, lambda)
heavy: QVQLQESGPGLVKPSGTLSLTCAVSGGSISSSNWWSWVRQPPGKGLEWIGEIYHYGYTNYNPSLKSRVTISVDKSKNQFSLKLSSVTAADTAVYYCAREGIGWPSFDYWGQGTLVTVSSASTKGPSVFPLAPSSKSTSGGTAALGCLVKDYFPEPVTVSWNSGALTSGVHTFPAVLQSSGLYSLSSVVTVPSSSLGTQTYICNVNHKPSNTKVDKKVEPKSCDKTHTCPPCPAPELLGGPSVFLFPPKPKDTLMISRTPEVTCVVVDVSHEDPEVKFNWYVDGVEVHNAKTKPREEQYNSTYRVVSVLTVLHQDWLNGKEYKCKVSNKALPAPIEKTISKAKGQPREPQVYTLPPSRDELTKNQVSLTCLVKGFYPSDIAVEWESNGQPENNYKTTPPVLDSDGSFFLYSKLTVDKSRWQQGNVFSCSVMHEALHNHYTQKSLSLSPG
light: SSELTQDPAASVALGQTVRITCQGDTLRSYYASWYQQKPGQAPILVIYGKNNRPSGIPDRFSGSSSGNTASLTITGAQAEDEADYYCNSRDLSGKNLVFGGGTKLTVLGQPKAAPSVTLFPPSSEELQANKATLVCLISDFYPGAVTVAWKADSSPVKAGVETTTPSKQSNNKYAASSYLSLTPEQWKSHRSYSCQVTHEGSTVEKTVAPTECS
notes: Heavy S54Y + N56Y + I82aS, light N30S + S93L
On to B2, for which the binding result (with IL-9; in test [10]; with IL-4; with IL-7; in the test with IL-21; in the test with IL-2) was “no binding (tested: 10 µg/mL)” in each case. Moreover, the binding result in [11], in test [12] and in test [13] was “binds” in each case. The “IC 50 (NK-92) in pM” value in test [1] turned out to be 18.2 pM. Moreover, in test [4], the Kd was 0.133 nM and 0.149 nM. Also, in test [4], the koff was 3.47e-05 s⁻¹ and 3.75e-05 s⁻¹. The kon in test [4] was 252000 M⁻¹ s⁻¹ and 261000 M⁻¹ s⁻¹. In addition, in [14], the “Max IC50 (pM), NK-92 proliferation assay” value was found to be 22 pM. Also, the “Mean IC50 (pM), NK-92 proliferation assay” value in [14] worked out at 14.7 pM. The “Min IC50 (pM), NK-92 proliferation assay” value in test [14] was found to be 10.2 pM.

B3: Antibody 70f (antibody, human IgG4 S228P, lambda)
heavy: QVQLQESGPGLVKPSGTLSLTCAVSGGSISSSNWWSWVRQPPGKGLEWIGEIYHYGYTNYNPSLKSRVTISVDKSKNQFSLKLSSVTAADTAVYYCAREGIGWPSFDYWGQGTLVTVSSASTKGPSVFPLAPCSRSTSESTAALGCLVKDYFPEPVTVSWNSGALTSGVHTFPAVLQSSGLYSLSSVVTVPSSSLGTKTYTCNVDHKPSNTKVDKRVESKYGPPCPPCPAPEFLGGPSVFLFPPKPKDTLYITREPEVTCVVVDVSQEDPEVQFNWYVDGVEVHNAKTKPREEQFNSTYRVVSVLTVLHQDWLNGKEYKCKVSNKGLPSSIEKTISKAKGQPREPQVYTLPPSQEEMTKNQVSLTCLVKGFYPSDIAVEWESNGQPENNYKTTPPVLDSDGSFFLYSRLTVDKSRWQEGNVFSCSVMHEALHNHYTQKSLSLSLG
light: B2 light
As for B3, the Kd is 0.43 nM in test [15]; 0.171 nM and 0.173 nM in test [4]. Moreover, the binding result (with IL-9; in [10]; with IL-4; with IL-7; with IL-21; with IL-2) was “no binding (tested: 10 µg/mL)” throughout. Besides, the koff in test [4] is 4.44e-05 s⁻¹ and 4.32e-05 s⁻¹. Also, the kon in test [4] is 249000 M⁻¹ s⁻¹ and 260000 M⁻¹ s⁻¹. Also, the “Max IC50 (pM), NK-92 proliferation assay” value in [14] was determined as 29.8 pM. Further, the “Mean IC50 (pM), NK-92 proliferation assay” value in [14] is 14.6 pM. In addition, the “Min IC50 (pM), NK-92 proliferation assay” value in test [14] was determined as 7.3 pM.

The values are drawn from patent publication US20200270339A1 (CEPHALON, published 2020).
